1 protein from patent publication US4748122A, “2,5-diketo-D-gluconic acid reductase” (Shionogi & Co., Ltd., priority 1983, dated 1988) can be followed below.

Substrate in this series: O=C(O)C(=O)[C@@H](O)[C@H](O)C(=O)CO
The experiment in a line: Spectrophotometric enzymatic activity (decrease in absorption at 340 nm), purified enzyme solution of Example 1. The series is classed as biochemical, Corynebacterium sp. No. 20A-77 mutant (FERM-BP 108). To be noted: other: varying concentrations of Ca-25DKG, 0.1M TB pH 7, 30° C.

B1: 25DKG-Rase (Corynebacterium sp. SHS752001) (protein)
chain: PNIPTISLNDGRPFAEPGLGTYNLRGDEGVAAMVAAIDSGYRLLDTAVNYENESEVGRAVRASSVDRDELIVASKIPGRQHGRAEAVDSIRGSLDRLGLDVIDLQLIHWPNPSVGRWLDTWRGMIDAREAGLVRSIGVSNFTEPMLKTLIDETGVTPAVNQVELHPYFPQAALRAFHDEHGIRTESWSPLARRSELLTEQLLQELAVVYGVTPTQVVLRWHVQLGSTPIPKSADPDRQRENADVFGFALTADQVDAISGLERGRLWDGDPDTHEEM
notes: The enzyme is an intracellular enzyme extracted from the cells of the 2KLG producing strain; made in house; host or cells: natural producer Corynebacterium sp; No. 20A-77 mutant FERM-BP 108, enzyme purified from sonicated cells; not recombinant
As a reminder, the Km is the substrate concentration at which the rate is half of its maximum. As for B1, the Michaelis-Menten constant (Km) came out at 1800 ± 1000 µM.
